In patent US20140178389A1 (AbbVie / Abbott, published 2014):
Where a chain is given by its changes, count along the chain named. One block for each binder: values may come before it.

How the values were obtained:
[1] = biological target: T1, recombinant cynomolgus IL-1β (cynomolgus, UniProt P79182 117-268); assay: SPR (Biacore), Expt 1
T1 construct: It was biotinylated in the ELISA and in the yeast display experiments; also called Cyno IL-1β; Cyno IL-1beta
T1 sequence (looked up): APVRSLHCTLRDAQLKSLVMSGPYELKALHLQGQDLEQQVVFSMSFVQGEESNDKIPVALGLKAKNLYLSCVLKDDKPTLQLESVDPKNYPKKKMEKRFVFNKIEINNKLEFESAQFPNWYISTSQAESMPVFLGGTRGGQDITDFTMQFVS
Procedure: (§1) Goat IgGs specific to human IgG Fc were covalently linked to the carboxy methyl dextran matrix on the CMS biosensor chip via free amine groups using an amine coupling kit and the immobilization wizard option in the Biacore instruments controlling software. Specifically, carboxyl groups of the dextran matrix on the chip were activated with NHS and EDC. Goat anti-human IgG Fc antibodies (25 μg/mL), diluted in 10 mM sodium acetate, pH 4.5, were injected across the activated surface. Once the level of binding response reached the desired value, unreacted groups were deactivated by injection of 1M ethanolamine. For binding of IL-1α & IL-1β to captured Ig, a 1 μg/mL concentration of Ig in HBS-EP+ was injected over the goat anti-human IgG Fc surface at a flow rate of 10 μL/min for 1 minute. The net difference in the baseline signal and the signal after the completion of the Ig injection was taken to represent the amount of bound Ig.

recombinant human IL-1β [2] = biological target: T2, recombinant human IL-1β (human, UniProt P01584 117-269); assay: SPR (Biacore), Expt 1
T2 construct: It was biotinylated in the ELISA and in the yeast display experiments; also called Hu IL-1beta; huIL-1b
Procedure: as §1

[3] = biological target: T1, recombinant cynomolgus IL-1β; assay: SPR (Biacore), average of 2 experiments
Procedure: as §1

recombinant human IL-1β [4] = biological target: T2, recombinant human IL-1β; assay: SPR (Biacore), average of 2 experiments
Procedure: as §1

[5] = biological target: T1, recombinant cynomolgus IL-1β; assay: SPR (Biacore), Expt 2
Procedure: as §1

recombinant human IL-1β [6] = biological target: T2, recombinant human IL-1β; assay: SPR (Biacore), Expt 2
Procedure: as §1

[7] = biological target: purified native human IL-1β (human, UniProt P01584 117-269); assay: cell-based or functional assay
[8] = biological target: T1, recombinant cynomolgus IL-1β; assay: cell-based or functional assay
recombinant human IL-1β [9] = biological target: T2, recombinant human IL-1β; assay: cell-based or functional assay
[10] = biological target: T1, recombinant cynomolgus IL-1β; assay: indirect ELISA: mAb captured on goat anti-human IgG, biotinylated IL-1β titrated
Procedure: (§2) An indirect ELISA was performed to assess the relative affinity of the affinity matured h1B12.1 mAbs to a human chimeric version of the murine 1B12 mAb. An ELISA plate was coated with goat anti-human IgG (Jackson Immunoresearch cat#109-005-098) at 0.5 ug/mL overnight. The plate was blocked with 5% milk for 1 hour and washed three times with TPBS. Affinity-matured h1B12.1 antibodies and human IgG control (Sigma cat#12511) were incubated on the plate for 30 min at 0.2 μg/mL and then the plates were washed three times. A titration of biotinylated human IL-1β or biotinylated cyno IL-1β was added to the plate, starting at 10 nM and decreasing in concentration following a series of 1:3 dilutions. Binding of biotinylated IL-1β was detected with a 1:10000 dilution of peroxidase-conjugated streptavidin (Jackson Immunoresearch cat#016-030-084) and TMB substrate (Invitrogen). The data were fit in Graphpad prism to determine the EC₅₀ values.

recombinant human IL-1β [11] = biological target: T2, recombinant human IL-1β; assay: as above
Procedure: as §2

Kd [1]: 0.49 nM
koff [1]: 0.00098 s⁻¹
kon [1]: 2e+06 M⁻¹ s⁻¹
Kd (recombinant human IL-1β [2]): 0.14 nM
koff (recombinant human IL-1β [2]): 0.00076 s⁻¹
kon (recombinant human IL-1β [2]): 5.5e+06 M⁻¹ s⁻¹
Kd [3]: 0.55 nM
koff [3]: 0.00092 s⁻¹
kon [3]: 1.7e+06 M⁻¹ s⁻¹
Kd (recombinant human IL-1β [4]): 0.14 nM
koff (recombinant human IL-1β [4]): 0.00077 s⁻¹
kon (recombinant human IL-1β [4]): 5.7e+06 M⁻¹ s⁻¹
Kd [5]: 0.6 nM
koff [5]: 0.00085 s⁻¹
kon [5]: 1.4e+06 M⁻¹ s⁻¹
Kd (recombinant human IL-1β [6]): 0.13 nM
koff (recombinant human IL-1β [6]): 0.00077 s⁻¹
kon (recombinant human IL-1β [6]): 5.8e+06 M⁻¹ s⁻¹
Potency IC50 (pM), MRC-5 bioassay (IL-8 secretion) [7]: 214 pM
Potency IC50 (pM), MRC-5 bioassay (IL-8 secretion) [8]: 352 pM
Potency IC50 (pM), MRC-5 bioassay (IL-8 secretion) (recombinant human IL-1β [9]): 691 pM
B1: 1B12.9, human anti-IL-1β IgG1/k mut (234,235) (antibody, V domains shown)
VH: EVQLQESGPGLVKPSETLSLTCTVSGFSLSDYGVSWIRQPPGKGLEWLGLIWGGGDTYYNSPLKSRLTISKDNSKSQVSLKLSSVTAADTAVYYCAKQRTLWGYDLYGMDYWGQGTLVTVSS
VL: DTQMTQSPSSLSASVGDRVTITCITSTDIDVDMNWYQQKPGKPPKLLISQGNTLRPGVPSRFSSSGSGTDFTFTISSLQPEDFATYYCLQSDNLPLTFGQGTKLEIKR
notes: also called PR-1317335; mAb 1B12.9

EC50 [10]: 0.034 nM
EC50 (recombinant human IL-1β [11]): 0.026 nM
B2: h1B12-AM2, affinity-matured h1B12.1 IgG1/k mut (234,235) mAb (scFv clone 21) (antibody, V domains shown)
VH: B1 VH with D31E, Y32F, L48I, T100N, G103A
VL: DIQMTQSPSSLSASVGDRVTITCQTSQDIDMDLNWYQQKPGKAPKLLISQGSTLWPGVPSRFSGSGSGTDFTFTISSLQPEDFATYYCLQTDSFPLTFGQGTKLEIKR
notes: also called PR-1354591

Potency IC50 (pM), MRC-5 bioassay (IL-8 secretion) [7]: 329 pM
Potency IC50 (pM), MRC-5 bioassay (IL-8 secretion) [8]: 410 pM
Potency IC50 (pM), MRC-5 bioassay (IL-8 secretion) (recombinant human IL-1β [9]): 913 pM
B3: Humanized monoclonal antibody 1B12.1 (antibody, V domains shown)
VH: B1 VH
VL: DTQVTQSPSSLSASVGDRVTITCITSTDIDVDMNWYQQKPGKPPKLLISQGNTLRPGVPSRFSSSGSGTDFTFTISSLQPEDFATYYCLQSDNLPLTFGQGTKLEIK

EC50 [10]: 0.026 nM
EC50 (recombinant human IL-1β [11]): 0.031 nM
B4: h1B12-AM1, affinity-matured h1B12.1 IgG1/k mut (234,235) mAb (scFv clone 13) (antibody, V domains shown)
VH: B1 VH with L48I, G54S, R99T, T100N, L101I, G103A, G108S
VL: B2 VL with Q27T, M31D, Q50L, G51A, W55R, T91S, S93R, F94L
notes: also called PR-1354589

EC50 [10]: 0.032 nM
EC50 (recombinant human IL-1β [11]): 0.033 nM
B5: h1B12-AM3, affinity-matured h1B12.1 IgG1/k mut (234,235) mAb (scFv clone 34) (antibody, V domains shown)
VH: B1 VH with L48I, G54S, N73T, R99T, T100N, G103A, G108S
VL: B2 VL with T25A, M31D, Q50L, G51A, T53I, W55R, T91S
notes: also called PR-1354592
